Target: FlAsH-tagged K63-linked diubiquitin (UniProt P0CG48)
Test: fluorescence polarisation; FlAsH-tagged K63-linked diUb (diluted to 80 nM, mixed 1:1) with serially diluted OTUD1; 50 mM Tris, 50 mM NaCl, 0.1% β-mercaptoethanol, pH 7.6; room temperature, 1 h

B1: OTUD1 catalytic domain (residues 287-435) C320A (domain or fragment)
chain: DEKLALYLAEVEKQDKYLRQRNKYRFHIIPDGNALYRAVSKTVYGDQSLHRELREQTVHYIADHLDHFSPLIEGDVGEFIIAAAQDGAWAGYPELLAMGQMLNVNIHLTTGGRLESPTVSTMIHYLGPEDSLRPSIWLSWLSNGHYDAV
With B1 the Kd was 40 µM.
